The values that follow come from patent publication US8460929B2, “Methods of tissue generation and tissue engineered compositions” (The Regents of the University of California, priority 2007, dated 2013).

In one test the test system is isolated ureteric bud. In words: Isolated ureteric bud culture in 3D extracellular matrix gel (soluble factor effects). The format is cell-based, rat. The following applies: for induction of isolated UB, WD, or UB and WD branching morphogenesis: factor alone or in combination with GDNF, without BSN-CM; for Shape: rat E13 isolated UB in 3D gel, GDNF 125 ng/ml, HRG 500 ng/ml, FGF1 250 ng/ml, FGF7 50 ng/ml, PTN purified from BSN-CM; for growth of the isolated UB, single soluble factor: factor by itself. The procedure: In the case of culture of the isolated UB, WD, or UB and WD, the isolated kidneys were trypsinized for 15 min at 37° C. in L-15 media containing 2 μg/ml trypsin (Sigma). Trypsin digestion was arrested by the addition of 10% FCS and the kidneys were removed to fresh L-15 where the UBs, WDs, or UBs and WDs were isolated from surrounding MM by mechanical dissection. isolated UBs, WDs, or UBs and WDs were suspended within an extracellular matrix gel [1:1 mixture of growth factor reduced Matrigel™ (BD) and Type 1 collagen (BD)] applied to the top of a polyester Transwell filter (0.4 μm pore size; Corning-Costar). The Transwells were placed within individual wells of a 24-well tissue culture dish containing 400 μl of either whole BSN-CM, purified tractions of BSN-CM, or D-12 which were supplemented with human recombinant FGF1 (250 ng/ml; R&D Systems), rat recombinant GDNF (125 ng/ml; R&D Systems) and 10% FCS and cultured. Phase-contrast photomicrographs of the developing UB, WD, or UB and WD were taken using a RT-Slider Spot Digital Camera (Diagnostic Instruments Inc.) attached to a Nikon Eclipse TE300 Inverted Microscope.
Isolated ureteric bud, Wolffian duct bud, or ureteric and Wolffian duct buds were obtained from whole embryonic kidneys as described herein. Briefly, the embryonic kidney was lightly digested with trypsin and the UB, WD, or UB and WD were separated from the MM using fine-tipped needles. The UBs, WDs, or UBs and WDs were suspended within a matrix containing growth factor reduced Matrigel™ and Type I collagen and buffered by HEPES, NaHCO3, and DMEM to a pH of approximately 7.2. This mixture containing the suspended UB, WD, or UB and WD was applied to the top of the Transwell filter and the purified factor is applied to the well. The factor is supplemented with GDNF (125 ng/ml) and 10% FCS, and the isolated UBs, WDs, or UBs and WDs are cultured at 37° C. and humidified 5% CO2 atmosphere and branching morphogenesis, was assayed.
The entire urogenital tract was isolated from timed pregnant Holtzman rats at embryonic day 13 (E13). Kidney rudiments were dissected and lightly digested in trypsin for 15 minutes, after which the ureteric buds were mechanically separated from the metanephric mesenchyme. For the growth factor optimization, the buds were suspended within a matrix containing growth factor-reduced Matrigel™ and DMEM/F12 (50:50 v/v) on a 0.4 μm pore sized Transwell filter and BSN-conditioned media supplemented with 10% FCS and 1% antibiotics was placed beneath the filter. GDNF (125 ng/ml), FGF1 (250 ng/ml), FGF7 (50 ng/ml), HRG (500 ng/ml), PTN (purified from BSN-CM) was added to the media in various combinations to achieve a “minimal” and “most robust” growth factor condition. For the matrix optimization, isolated buds were cultured in a BSN-CM supplemented with 10% FCS, GDNF (125 ng/ml), FGF1 (250 ng/ml), and 1% antibiotics. Isolate buds were suspended in matrices (natural and artificial) consisting of growth factor reduced Matrigel™ diluted with DMEM/F12 (15%, 25%, 50%, 75% and 100%), type I collagen (3.0 mg/ml), Puramatrix™, 1% alginate solution (crosslinked with 100 mM CaCl2), and type IV collagen (0.75 mg/mL). In some cases, type I collagen, laminin 1, alginate or type IV collagen were added to a 50% growth factor reduced Matrigel™ solution. All matrix solutions were supplemented with DMEM and buffered by HEPES and NaHCO3 to a pH of approximately 7.2. The isolated buds were then cultured at 37° C. in a humidified 5% CO2 atmosphere.

The subject of the next test is Wolffian duct. Description: Wolffian duct budding in vitro. The format is cell-based, rat. The following applies: whole mesonephros on Transwell filter, 10% serum and 10 ng/mL GDNF, two days. The source says:
The entire urogenital tract was isolated from timed pregnant Holtzman rats at embryonic day 13 (E13). Kidney rudiments were dissected, and the Wolffian duct was transected and removed. In some cases, the mesonephric tubules and most of the intermediate mesoderm were mechanically separated from the WD leaving a thin layer of the intermediate mesoderm that remained adherent to the WD. In some cases, the intermediate mesoderm was carefully stripped away in its entirety so that the epithelial tube of the WD remained intact. The WD with mesonephros and the WD with intermediate mesoderm were placed on 0.4 μm pore size Transwell filters and cultured at the air-media interface. The isolated WD devoid of all intermediate mesoderm was suspended in a matrix containing growth factor reduced Matrigel'm and DMEM/F12 (50:50 v/v) on a 0.4 μm pore sized Transwell filter. All cultures were carried out at 37° C. in a fully humidified 5% CO2 atmosphere in the presence of DMEM/F12 (50:50) media supplemented with 10% fetal calf serum (FCS), GDNF (10 ng/mL for the WD plus mesonephros, 125 ng/ml WD plus mesoderm and isolated WD) and, if necessary, either FGF1 (250 ng/ml) or FGF7 (50 ng/ml).

A further test deals with whole embryonic kidney. Description: Whole embryonic kidney organ culture. The class given is cell-based, rat. The source says: Timed pregnant female Sprague-Dawley rats at day 13 of gestation (day 0 coincided with appearance of the vaginal plug) were sacrificed and the uteri were removed. The embryos were dissected free of surrounding tissues and the kidneys were isolated. For the culture of the whole kidney rudiment, 2-3 kidneys were applied directly to the top of a polyester Transwell filter (0.4 μm pore size; Corning-Costar). The Transwells were then placed within individual wells of a 24-well tissue culture dish containing 400 μl DMEM/F12 supplemented with 10% FCS with or without purified pleiotrophin. Following 7 days of culture, the kidneys were fixed in 2% paraformaldehyde and doublestained with fluorescein-conjugated Dolichos biflorus, a lectin which binds specifically to UB, WD, or UB and WD-derived structures, and rhodamine conjugated peanut agglutinin, a lectin which binds to structures derived from the MM. Fluorescent staining was detected using a laser-scanning confocal microscope (Zeiss).

The test system of test [1] is UB, WD, or UB and WD derived cells. Description: UB cell three-dimensional culture (tubulogenic activity). The format is cell-based, mouse. The following applies: collagen/Matrigel gel, 1% FCS, 4 days. The procedure: Confluent monolayers of UBs, WDs, or UBs and WDs were removed from tissue culture dishes by light trypsinization and the cells. 20,000 cells/ml were suspended in an extracellular matrix gel composed of 80% Type 1 collagen and 20% growth factor-reduced Matrigel™. 100 μl of the UB, WD, or UB and WD cell-containing gel was then aliquoted into individual wells of a 96-well tissue culture plate. After gelation, 100 μl of growth medium (DMEM/F12 with or without purified pleiotrophin) supplemented with 1% FCS was applied to each well and the cultures were incubated at 32° C. in 5% CO2 and 100% humidity. Following 4 days of culture, the percentage of cells/colonies with processes was counted as an indicator of the tubulogenic activity. Phase-contrast photomicrographs were taken as described herein.

Regarding “Hepatocyte growth factor [HGF, reference compound]”, the “induction of isolated UB, WD, or UB and WD branching morphogenesis” value with isolated ureteric bud is “does not induce branching morphogenesis”.
As to fibroblast growth factor-1 [FGF1], the “effect of added FGF1 on inductive capacity of BSN-CM” value in the test with isolated ureteric bud (250 ng/ml FGF1) is recorded as “could potentiate the activity of the BSN-CM”. Moreover, in the test on isolated ureteric bud, the “induction of isolated UB, WD, or UB and WD branching morphogenesis” value was “not sufficient to induce”; the Shape result is recorded as “tubular”.
Take heregulin [HRG]: in the test with isolated ureteric bud, the “growth of the isolated UB, single soluble factor” value (“growth of the isolated UB” below) was “did not support growth”.

B1: glial cell-derived neurotrophic factor (protein, UniProt P39905 78-211, looked up)
Glial cell line-derived …: SPDKQMAVLPRRERNRQAAAANPENSRGKGRRGQRGKNRGCVLTAIHLNVTDLGLGYETKEELIFRYCSGSCDAAETTYDKILKNLSRNRRLVSDKVGQACCRPIAFDDDLSFLDDNLVYHILRKHSAKRCGCI
notes: growth factor obtained from R&D Systems
Regarding B1, the Wolffian duct budding result in the test with Wolffian duct is “numerous budding events occurred at multiple foci along the WD”. Besides, the “growth of the isolated UB” value in the test with isolated ureteric bud is recorded as “did not support growth”.

B2: fibroblast growth factor-7 (protein, UniProt P21781 32-194, looked up)
Fibroblast growth factor 7: CNDMTPEQMATNVNCSSPERHTRSYDYMEGGDIRVRRLFCRTQWYLRIDKRGKVKGTQEMKNNYNIMEIRTVAVGIVAIKGVESEFYLAMNKEGKLYAKKECNEDCNFKELILENHYNTYASAKWTHNGGEMFVALNQKGIPVRGKKTKKEQKTAHFLPMAIT
notes: as for B1
Consider B2, for which, in the test with isolated ureteric bud, the Shape entry is given as “globular”.

B3: pleiotrophin (protein, UniProt P21246 33-168, looked up)
Pleiotrophin: GKKEKPEKKVKKSDCGEWQWSVCVPTSGDCGLGTREGTRTGAECKQTMKTQRCKIPCNWKKQFGAECKYQFQAWGECDLNTALKTRTGSLKRALHNAECQKTVTISKPCGKLTKPKPQAESKKKKKEGKKQEKMLD
On to B3, for which, in the test with whole embryonic kidney (exogenously added pleiotrophin, 7 days), the “growth of the UB in whole embryonic kidney organ culture” value is reported as “disproportionately stimulated growth”. Further, the “Nephron induction visualized with PNA lectin” value with whole embryonic kidney (high concentrations of pleiotrophin) was “appeared to be normal”. Besides, in test [1], the “formation of branching structures of UB cells in three dimensional culture” value was “capable of inducing the formation of branching structures”. The “morphology of the branching UB, lower concentrations” value in the test on isolated ureteric bud (156 ng/ml-2.5 pg/ml purified pleiotrophin) is “dichotomous branching and elongation of the stalk”. The “concentrations useful for morphogenetic activity” value in the test on isolated ureteric bud (cultures in collagen IV or basement membrane Matrigel) was in the range of 200 to 600 ng/mL. The “growth of the isolated UB” value in the test with isolated ureteric bud is on record as “did not support growth”. In addition, in the test with isolated ureteric bud (pure pleiotrophin isolated from Swiss 3T3 conditioned medium), the “branching morphogenesis of the isolated UB, pleiotrophin purified from 3T3 conditioned medium” value is on record as “capable of inducing impressive branching morphogenesis”. Besides, the “induction of UB, WD, or UB and WD branching morphogenesis” value in the test with isolated ureteric bud (supplemented with GDNF, in the absence of FGF1) is listed as “capable of inducing”. Further, the “morphology of the branching UB, high concentration” value in the test with isolated ureteric bud (≧5 μg/ml purified pleiotrophin) is “robust proliferation with less elongation”.

B4: recombinant human pleiotrophin: recombinant human pleiotrophin produced in the insect cell line (R&D systems) (protein, UniProt P21246 33-168, looked up)
Pleiotrophin: B3 Pleiotrophin
As for B4, the “branching morphogenesis of the isolated UB, WD, or UB and WD” value in the test with isolated ureteric bud (E13 rat bud in extracellular matrix gel, with GDNF) is on record as “unable to induce”.
